Measurements taken from patent US20260042850A1 (LOCKBODY THERAPEUTICS, published 2026).

Columns and labels:
[1] = biological target: T1, human C-MET on stably transfected CHO-K1 cells (human, UniProt P08581 25-1390); assay: flow cytometry, C-MET CHO-K1 cells
T1 construct: also called hucMET; human C-MET+ CHO-K1 cells
Method: (§1) Purified IgGs were tested in FACs for binding to human and cyno C-MET expressed on CHO-K1 stable cell lines and CHO-K1 wild-type cells. The IgG samples were titrated in three-fold serial dilutions starting at 500 nM to 0.08 nM. Binding of IgGs was detected with a mouse anti-human IgG conjugated to FITC. Results were analyzed by examining the Mean Fluorescence Intensity (MFI) of 10000 cells per sample in the BL-1 channel detector of a flow cytometer (Attune™ NxT Acoustic Focusing Cytometer, Invitrogen/ThermoFisher Scientific).

[2] = biological target: T2, cynomolgus monkey C-MET on stably transfected CHO-K1 cells (cynomolgus monkey, UniProt A0M8R7 25-1381 (Papio anubis entry)); assay: flow cytometry, C-MET CHO-K1 cells
T2 construct: also called cycMET; cyno C-MET+ CHO-K1 cells
Method: as §1

[3] = biological target: T1, human C-MET on stably transfected …; assay: flow cytometry, C-MET CHO-K1 cells; remark: listed apart in the source
Method: as §1
(§2) Antibodies to C-MET were analysed for concentration-dependent binding at the cell surface via flow cytometry. CHO-K1 cells were stably transfected with either human or cyno C-MET full-length cDNAs. Anti-C-MET IgGs and an isotype control IgG4(S228P) were then all tested in IgG4(S228P) format, over a concentration range of 500-0.08 nM for binding to human (FIG. 5A) and cyno (FIG. 5B) CHO-K1 cells.

[4] = biological target: T2, cynomolgus monkey C-MET on stably …; assay: flow cytometry, C-MET CHO-K1 cells; remark: listed apart in the source
Method: as §1, §2

[5] = biological target: T3, cynomolgus monkey C-MET His tag, monomeric (cynomolgus monkey, UniProt A0M8R7 25-932 (Papio anubis entry)); assay: SPR Biacore, monomeric cyno against monomeric human C-MET
T3 construct: also called monomeric cyno C-MET; cyCMET
Method: (§3) Affinity (KD) of purified IgGs was determined via SPR with antigen in-solution on a Biacore® 3000 (GE). A mouse anti-human antibody (CH1 specific) was immobilized on a CM5 Sensor Chip to a level of 2000 RU in acetate buffer at pH 4.5 using amine coupling following the Wizard instructions for two channels. One channel was used for background signal correction. The standard running buffer HBS-EP pH 7.4 was used. Regeneration was performed with a single injection of 10 μl of 10 mM Glycine at pH 1.5 at 20 μl/minute. IgG samples were injected for 2 minutes at 50 nM at 30 μl/min followed by and off-rate of 60 seconds. The monomeric antigen (human C-MET His tagged or cynomolgus monkey C-MET His tag) was injected in two fold serial dilutions from 100 nM down to 6 nM, for 2 minutes at 30 μl/min followed by an off-rate of 300 seconds. The obtained sensorgrams were analysed using the Biacore® 3000 evaluation (BIAevaluation) software. The KD was calculated by simultaneous fitting of the association and dissociation phases to a 1:1 Langmuir binding model.

[6] = biological target: T4, human C-MET His tagged, monomeric (human, UniProt P08581 25-932); assay: SPR Biacore, IgG captured, monomeric C-MET-His analyte
T4 construct: also called monomeric human C-MET; biotinylated human C-MET-His
Method: as §3

[7] = biological target: T3, cynomolgus monkey C-MET His tag, …; assay: as above
Method: as §3

[8] = biological target: T5, Insulin; assay: polyreactivity ELISA on insulin; design: scale not given here
T5 construct: Coated surface of the polyreactivity (development risk) ELISA
T5 sequence (P01308 25-54, chain 1 of 2): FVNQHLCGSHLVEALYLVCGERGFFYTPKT
T5 sequence (P01308 90-110, chain 2 of 2): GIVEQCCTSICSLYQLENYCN

T1 sequence (P08581 25-1390 limits assumed): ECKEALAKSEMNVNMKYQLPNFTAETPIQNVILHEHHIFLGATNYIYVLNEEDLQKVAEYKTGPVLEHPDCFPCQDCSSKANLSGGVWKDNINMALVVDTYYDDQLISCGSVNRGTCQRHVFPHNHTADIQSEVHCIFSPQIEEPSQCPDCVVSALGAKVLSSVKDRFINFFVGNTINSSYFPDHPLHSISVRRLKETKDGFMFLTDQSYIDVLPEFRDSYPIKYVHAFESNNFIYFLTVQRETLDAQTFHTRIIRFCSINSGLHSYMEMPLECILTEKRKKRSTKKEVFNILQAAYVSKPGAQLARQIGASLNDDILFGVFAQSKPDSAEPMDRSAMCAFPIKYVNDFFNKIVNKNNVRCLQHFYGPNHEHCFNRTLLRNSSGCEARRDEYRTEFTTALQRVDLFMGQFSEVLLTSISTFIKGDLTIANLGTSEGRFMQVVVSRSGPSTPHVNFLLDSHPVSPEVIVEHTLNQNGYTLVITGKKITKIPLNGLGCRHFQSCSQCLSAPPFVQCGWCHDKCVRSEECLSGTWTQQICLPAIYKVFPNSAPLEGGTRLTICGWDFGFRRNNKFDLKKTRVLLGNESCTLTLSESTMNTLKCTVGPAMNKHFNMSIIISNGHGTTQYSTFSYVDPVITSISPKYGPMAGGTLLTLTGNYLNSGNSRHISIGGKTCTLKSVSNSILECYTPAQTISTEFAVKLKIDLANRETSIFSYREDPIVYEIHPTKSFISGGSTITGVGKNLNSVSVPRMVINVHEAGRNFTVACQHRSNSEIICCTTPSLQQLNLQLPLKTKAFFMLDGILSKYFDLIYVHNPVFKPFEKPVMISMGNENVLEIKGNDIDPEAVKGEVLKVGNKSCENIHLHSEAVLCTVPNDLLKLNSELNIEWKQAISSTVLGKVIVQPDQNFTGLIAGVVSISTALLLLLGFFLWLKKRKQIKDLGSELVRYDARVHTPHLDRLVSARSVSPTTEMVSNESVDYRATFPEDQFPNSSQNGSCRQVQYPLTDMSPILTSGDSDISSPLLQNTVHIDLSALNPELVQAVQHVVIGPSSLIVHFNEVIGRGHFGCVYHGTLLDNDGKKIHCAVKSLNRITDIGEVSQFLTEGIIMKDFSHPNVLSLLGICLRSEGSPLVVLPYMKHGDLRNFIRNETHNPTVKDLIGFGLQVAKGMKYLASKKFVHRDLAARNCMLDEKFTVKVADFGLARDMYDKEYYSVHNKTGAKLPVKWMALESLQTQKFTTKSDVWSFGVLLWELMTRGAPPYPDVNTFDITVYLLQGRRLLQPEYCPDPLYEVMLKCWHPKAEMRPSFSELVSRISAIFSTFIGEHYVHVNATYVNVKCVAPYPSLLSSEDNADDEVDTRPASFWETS
T3 sequence (A0M8R7 25-932 S170N/I621T): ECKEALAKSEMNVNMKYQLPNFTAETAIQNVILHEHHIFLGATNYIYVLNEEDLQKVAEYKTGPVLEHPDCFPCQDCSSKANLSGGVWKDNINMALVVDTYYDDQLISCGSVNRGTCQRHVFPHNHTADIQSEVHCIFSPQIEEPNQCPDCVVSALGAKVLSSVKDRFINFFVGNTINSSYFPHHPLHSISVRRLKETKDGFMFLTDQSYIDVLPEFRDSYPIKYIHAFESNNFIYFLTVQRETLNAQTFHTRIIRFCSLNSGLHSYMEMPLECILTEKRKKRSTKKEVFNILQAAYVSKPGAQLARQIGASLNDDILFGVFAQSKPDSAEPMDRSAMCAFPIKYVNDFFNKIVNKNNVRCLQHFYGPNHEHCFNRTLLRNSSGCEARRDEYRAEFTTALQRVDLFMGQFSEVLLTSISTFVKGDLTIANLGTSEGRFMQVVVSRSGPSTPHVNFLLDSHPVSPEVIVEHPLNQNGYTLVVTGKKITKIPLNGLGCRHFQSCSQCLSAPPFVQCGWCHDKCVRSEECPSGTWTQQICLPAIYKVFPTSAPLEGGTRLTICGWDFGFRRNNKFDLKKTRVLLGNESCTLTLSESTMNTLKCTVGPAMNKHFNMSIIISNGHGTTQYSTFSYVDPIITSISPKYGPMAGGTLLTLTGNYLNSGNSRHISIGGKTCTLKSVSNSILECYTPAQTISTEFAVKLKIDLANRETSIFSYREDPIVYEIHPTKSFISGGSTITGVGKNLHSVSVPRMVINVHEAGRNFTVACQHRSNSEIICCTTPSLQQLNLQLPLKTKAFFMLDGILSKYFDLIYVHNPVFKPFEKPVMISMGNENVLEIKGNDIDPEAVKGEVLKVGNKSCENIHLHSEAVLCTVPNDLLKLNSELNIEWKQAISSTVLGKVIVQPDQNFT
T4 sequence (P08581 25-932): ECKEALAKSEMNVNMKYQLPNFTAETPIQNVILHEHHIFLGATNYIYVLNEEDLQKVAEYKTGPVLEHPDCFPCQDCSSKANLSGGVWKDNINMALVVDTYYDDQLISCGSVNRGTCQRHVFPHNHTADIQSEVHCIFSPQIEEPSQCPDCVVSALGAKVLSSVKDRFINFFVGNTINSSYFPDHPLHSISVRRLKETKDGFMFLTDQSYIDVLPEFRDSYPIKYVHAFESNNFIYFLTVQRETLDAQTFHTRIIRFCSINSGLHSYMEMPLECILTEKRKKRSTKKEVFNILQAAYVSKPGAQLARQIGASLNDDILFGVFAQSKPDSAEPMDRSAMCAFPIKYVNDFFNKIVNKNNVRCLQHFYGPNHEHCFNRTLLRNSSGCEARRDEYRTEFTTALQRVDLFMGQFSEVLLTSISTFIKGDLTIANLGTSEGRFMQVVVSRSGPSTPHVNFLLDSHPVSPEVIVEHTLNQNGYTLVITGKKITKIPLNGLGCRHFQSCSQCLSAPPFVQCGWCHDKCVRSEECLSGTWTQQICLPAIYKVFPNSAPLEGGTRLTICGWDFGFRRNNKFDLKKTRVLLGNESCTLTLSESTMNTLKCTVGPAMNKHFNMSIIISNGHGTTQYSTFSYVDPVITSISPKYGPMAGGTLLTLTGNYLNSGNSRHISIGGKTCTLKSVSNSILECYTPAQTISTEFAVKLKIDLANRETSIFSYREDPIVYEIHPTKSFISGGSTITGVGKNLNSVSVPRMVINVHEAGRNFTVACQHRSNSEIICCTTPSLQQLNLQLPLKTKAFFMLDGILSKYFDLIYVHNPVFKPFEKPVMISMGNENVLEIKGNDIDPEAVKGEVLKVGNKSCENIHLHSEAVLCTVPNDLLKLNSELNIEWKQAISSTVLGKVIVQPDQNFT
T2 sequence (A0M8R7 25-1381 S170N/I621T limits assumed): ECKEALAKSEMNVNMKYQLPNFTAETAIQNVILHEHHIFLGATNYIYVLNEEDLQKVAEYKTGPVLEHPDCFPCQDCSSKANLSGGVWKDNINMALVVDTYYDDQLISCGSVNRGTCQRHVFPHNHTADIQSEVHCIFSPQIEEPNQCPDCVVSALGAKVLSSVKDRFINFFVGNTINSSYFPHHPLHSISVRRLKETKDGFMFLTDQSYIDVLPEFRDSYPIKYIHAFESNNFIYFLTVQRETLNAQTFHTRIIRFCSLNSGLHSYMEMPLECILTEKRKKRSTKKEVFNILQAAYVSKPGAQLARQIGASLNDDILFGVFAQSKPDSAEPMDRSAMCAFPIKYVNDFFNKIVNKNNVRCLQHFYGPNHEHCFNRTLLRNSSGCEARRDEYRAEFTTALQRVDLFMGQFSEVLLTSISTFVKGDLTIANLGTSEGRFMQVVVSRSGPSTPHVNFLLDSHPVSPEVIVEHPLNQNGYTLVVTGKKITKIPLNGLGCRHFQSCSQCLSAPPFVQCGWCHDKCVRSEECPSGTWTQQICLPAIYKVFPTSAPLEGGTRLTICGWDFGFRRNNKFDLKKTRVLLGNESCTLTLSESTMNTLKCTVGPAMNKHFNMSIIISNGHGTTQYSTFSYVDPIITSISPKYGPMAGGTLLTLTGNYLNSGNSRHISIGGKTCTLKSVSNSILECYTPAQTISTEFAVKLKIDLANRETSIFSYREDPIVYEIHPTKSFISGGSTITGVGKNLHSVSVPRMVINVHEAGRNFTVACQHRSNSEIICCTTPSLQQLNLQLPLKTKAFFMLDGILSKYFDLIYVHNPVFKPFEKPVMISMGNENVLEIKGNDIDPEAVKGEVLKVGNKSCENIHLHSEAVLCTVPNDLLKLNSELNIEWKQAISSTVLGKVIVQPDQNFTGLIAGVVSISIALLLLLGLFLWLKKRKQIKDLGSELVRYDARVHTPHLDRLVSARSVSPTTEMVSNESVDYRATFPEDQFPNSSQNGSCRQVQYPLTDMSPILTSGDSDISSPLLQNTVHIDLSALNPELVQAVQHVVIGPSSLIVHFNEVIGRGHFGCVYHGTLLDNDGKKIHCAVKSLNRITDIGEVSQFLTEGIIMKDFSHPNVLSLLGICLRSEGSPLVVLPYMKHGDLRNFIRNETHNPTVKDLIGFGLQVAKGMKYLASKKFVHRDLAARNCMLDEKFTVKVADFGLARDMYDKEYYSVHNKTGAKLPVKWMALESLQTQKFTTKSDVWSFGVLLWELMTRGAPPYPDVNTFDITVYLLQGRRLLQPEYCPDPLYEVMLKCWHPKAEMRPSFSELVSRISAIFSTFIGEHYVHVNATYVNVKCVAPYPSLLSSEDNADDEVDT

Binder | EC50 [1] [pM] | EC50 [2] [pM] | maximum MFI, fold over Isotype IgG4 background [3] [fold] | maximum MFI, fold over Isotype IgG4 background [4] [fold] | cyno C-MET affinity, fold of the human C-MET affinity [5] [fold] | Kd [6] [pM] | koff [6] [s⁻¹] | kon [6] [M⁻¹ s⁻¹] | Kd [7] [pM] | koff [7] [s⁻¹] | kon [7] [M⁻¹ s⁻¹] | reactivity score [8]
MH4 (antibody, IgG4, V domains shown) VH: QVQLVQSGAEVKKPGASVKVSCKASGYTFTSYTMHWVRQAPGQGLEWMGWINPSGGSTSYAQKFQGRVTMTRDTSTSTVYMELSSLRSEDTAVYYCARQEITTEFDYWGQGTLVTVSS VL: EIVLTQSPGTLSLSPGERATLSCRASQSVSSYANSYLHWYQQKPGQAPRLLIYRGSTRESGIPDRFSGSGSGTDFTLTISRLEPEDFAVYYCQQSKSEPLTFGGGTKVEIK | 1720 | 480 | > 10 | > 10 | ≤ 2 | 280 | 2.5e-05 | 87000 | 190 | 4.9e-05 | 260000 | 
09E04 (antibody, IgG4, V domains shown) VH: QVQLVQSGAEVKKPGASVKVSCKASGYIFTSYTMHWVRQAPGQGLEWMGWINPNGGSTSYAQKFQGRVTMTRDTSTSTVYMELSSLRSEDTAVYYCARQEITTEFDYWGQGTLVTVSS VL: EIVLTQSPGTLSLSPGERATLSCRASQSVESYANSYLHWYQQKPGQAPRLLIYRGSTRESGIPDRFSGSGSGTDFTLTISRLEPEDFAVYYCQQYGSEPLTFGGGTKVEIK | 2900 | 1110 | > 10 | > 10 | ≤ 2 | 180 | 1.6e-05 | 85000 | 390 | 6.4e-05 | 170000 | 
MH7-1 (antibody, human IgG4, V domains shown) VH: QVQLVQSGAEVKKPGASVKVSCKASGYTFTSYTMHWVRQAPGQGLEWMGIINPSGGSTSYAQKFQGRVTMTRDTSTSTVYMELSSLRSEDTAVYYCARQEITTEFDYWGQGTLVTVSS VL: EIVLTQSPGTLSLSPGERATLSCRASQSVSSYANSYLHWYQQKPGQAPRLLIYRGSTRETGIPDRFSGSGSGTDFTLTISRLEPEDFAVYYCQQSKSEPLTFGGGTKVEIK |  |  | > 10 | > 10 |  | 1540 | 0.000151 | 97900 | 1100 | 0.000198 | 181000 | 1

The remaining binders from weak to strong by Kd [6], led by results:

EC50 [1] [pM] | EC50 [2] [pM] | maximum MFI, fold over Isotype IgG4 background [3] [fold] | maximum MFI, fold over Isotype IgG4 background [4] [fold] | cyno C-MET affinity, fold of the human C-MET affinity [5] [fold] | Kd [6] [pM] | koff [6] [s⁻¹] | kon [6] [M⁻¹ s⁻¹] | Kd [7] [pM] | koff [7] [s⁻¹] | kon [7] [M⁻¹ s⁻¹] | reactivity score [8] | Binder
12400 | 640 | > 10 | > 10 | ≤ 2 | 130 | 1.8e-05 | 140000 | 190 | 5.6e-05 | 290000 |  | 04F09 (antibody, IgG4, V domains shown) VH: QVQLVQSGAEVKKPGASVKVSCKASGYIFTSYSMHWVRQAPGQGLEWMGWINPSNGLANYAQKFQGRVTMTRDTSTSTVYMELSSLRSEDTAVYYCARQEITTEFDIWGQGTLVTVSS VL: EIVLTQSPGTLSLSPGERATLSCRASQSVESYAQSYLHWYQQKPGQAPRLLIYRGSTRESGIPDRFSGSGSGTDFTLTISRLEPEDFAVYYCQQSKSDPLTFGGGTKVEIK
4190 | 680 | > 10 | > 10 | ≤ 2 | 120 | 7.54e-06 | 63400 | 240 | 2.4e-05 | 100000 | 1 | 08G07 (antibody, human IgG4, V domains shown) VH: QVQLVQSGAEVKKPGASVKVSCKASGYTFTSYTMHWVRQAPGQGLEWMGWINPSGGLANYAQKFQGRVTMTRDTSTSTVYMELSSLRSEDTAVYYCARSEITTDFDYWGQGTLVTVSS VL: EIVLTQSPGTLSLSPGERATLSCRASQSVDSYANSYLHWYQQKPGQAPRLLIYRGSTRESGIPDRFSGSGSGTDFTLTISRLEPEDFAVYYCQQSKSEPLTFGGGTKVEIK
